B1: His-tagged Loqs-PD, wild type [Drosophila melanogaster] / Drosophila melanogaster Dicer-2 (Dcr-2), wild type [Drosophila melanogaster] (parent complex)
chain 1: MDQENFHGSSLPQQLQNLHIQPQQASPNPVQTGFAPRRHYNNLVGLGNGNAVSGSPVKGAPLGQRHVKLKKEKISAQVAQLSQPGQLQLSDVGDPALAGGSGLQGGVGLMGVILPSDEALKFVSETDANGLAMKTPVSILQELLSRRGITPGYELVQIEGAIHEPTFRFRVSFKDKDTPFTAMGAGRSKKEAKHAAARALIDKLIGAQLPESPSSSAGPSVTGLTVAGSGGDGNANATGGGDASDKTVGNPIGWLQEMCMQRRWPPPSYETETEVGLPHERLFTIACSILNYREMGKGKSKKIAKRLAAHRMWMRLQETPIDSGKISDSICGELEGEVSIIQDIDRYEQVSKDFEFIKI
chain 2: MEDVEIKPRGYQLRLVDHLTKSNGIVYLPTGSGKTFVAILVLKRFSQDFDKPIESGGKRALFMCNTVELARQQAMAVRRCTNFKVGFYVGEQGVDDWTRGMWSDEIKKNQVLVGTAQVFLDMVTQTYVALSSLSVVIIDECHHGTGHHPFREFMRLFTIANQTKLPRVVGLTGVLIKGNEITNVATKLKELEITYRGNIITVSDTKEMENVMLYATKPTEVMVSFPHQEQVLTVTRLISAEIEKFYVSLDLMNIGVQPIRRSKSLQCLRDPSKKSFVKQLFNDFLYQMKEYGIYAASIAIISLIVEFDIKRRQAETLSVKLMHRTALTLCEKIRHLLVQKLQDMTYDDDDDNVNTEEVIMNFSTPKVQRFLMSLKVSFADKDPKDICCLVFVERRYTCKCIYGLLLNYIQSTPELRNVLTPQFMVGRNNISPDFESVLERKWQKSAIQQFRDGNANLMICSSVLEEGIDVQACNHVFILDPVKTFNMYVQSKGRARTTEAKFVLFTADKEREKTIQQIYQYRKAHNDIAEYLKDRVLEKTEPELYEIKGHFQDDIDPFTNENGAVLLPNNALAILHRYCQTIPTDAFGFVIPWFHVLQEDERDRIFGVSAKGKHVISINMPVNCMLRDTIYSDPMDNVKTAKISAAFKACKVLYSLGELNERFVPKTLKERVASIADVHFEHWNKYGDSVTATVNKADKSKDRTYKTECPLEFYDALPRVGEICYAYEIFLEPQFESCEYTEHMYLNLQTPRNYAILLRNKLPRLAEMPLFSNQGKLHVRVANAPLEVIIQNSEQLELLHQFHGMVFRDILKIWHPFFVLDRRSKENSYLVVPLILGAGEQKCFDWELMTNFRRLPQSHGSNVQQREQQPAPRPEDFEGKIVTQWYANYDKPMLVTKVHRELTPLSYMEKNQQDKTYYEFTMSKYGNRIGDVVHKDKFMIEVRDLTEQLTFYVHNRGKFNAKSKAKMKVILIPELCFNFNFPGDLWLKLIFLPSILNRMYFLLHAEALRKRFNTYLNLHLLPFNGTDYMPRPLEIDYSLKRNVDPLGNVIPTEDIEEPKSLLEPMPTKSIEASVANLEITEFENPWQKYMEPVDLSRNLLSTYPVELDYYYHFSVGNVCEMNEMDFEDKEYWAKNQFHMPTGNIYGNRTPAKTNANVPALMPSKPTVRGKVKPLLILQKTVSKEHITPAEQGEFLAAITASSAADVFDMERLEILGDSFLKLSATLYLASKYSDWNEGTLTEVKSKLVSNRNLLFCLIDADIPKTLNTIQFTPRYTWLPPGISLPHNVLALWRENPEFAKIIGPHNLRDLALGDEESLVKGNCSDINYNRFVEGCRANGQSFYAGADFSSEVNFCVGLVTIPNKVIADTLEALLGVIVKNYGLQHAFKMLEYFKICRADIDKPLTQLLNLELGGKKMRANVNTTEIDGFLINHYYLEKNLGYTFKDRRYLLQALTHPSYPTNRITGSYQELEFIGDAILDFLISAYIFENNTKMNPGALTDLRSALVNNTTLACICVRHRLHFFILAENAKLSEIISKFVNFQESQGHRVTNYVRILLEEADVQPTPLDLDDELDMTELPHANKCISQEAEKGVPPKGEFNMSTNVDVPKALGDVLEALIAAVYLDCRDLQRTWEVIFNLFEPELQEFTRKVPINHIRQLVEHKHAKPVFSSPIVEGETVMVSCQFTCMEKTIKVYGFGSNKDQAKLSAAKHALQQLSKCDA

Variants of: B1
Test: pull-down; parent: 1; read off a plot
chain 1 MDQENFHGSSLPQQLQNLHIQPQQASPNPVQTGFAPRRHYNNLVGLGNGNAVSGSPVKGAPLGQRHVKLKKEKISAQVAQLSQPGQLQLSDVGDPALAGGSGLQGGVGLMGVILPSDEALKFVSETDANGLAMKTPVSILQELLSRRGITPGYELVQIEGAIHEPTFRFRVSFKDKDTPFTAMGAGRSKKEAKHAAARALIDKLIGAQLPESPSSSAGPSVTGLTVAGSGGDGNANATGGGDASDKTVGNPIGWLQEMCMQRRWPPPSYETETEVGLPHERLFTIACSILNYREMGKGKSKKIAKRLAAHRMWMRLQETPIDSGKISDSICGELEGEVSIIQDIDRYEQVSKDFEDIKI [chain 1 F356D] showed a ratio to parent of roughly 0.06.
For chain 1 MDQENFHGSSLPQQLQNLHIQPQQASPNPVQTGFAPRRHYNNLVGLGNGNAVSGSPVKGAPLGQRHVKLKKEKISAQVAQLSQPGQLQLSDVGDPALAGGSGLQGGVGLMGVILPSDEALKFVSETDANGLAMKTPVSILQELLSRRGITPGYELVQIEGAIHEPTFRFRVSFKDKDTPFTAMGAGRSKKEAKHAAARALIDKLIGAQLPESPSSSAGPSVTGLTVAGSGGDGNANATGGGDASDKTVGNPIGWLQEMCMQRRWPPPSYETETEVGLPHERLFTIACSILNYREMGKGKSKKIAKRLAAHRMWMRLQETPIDSGKISDSICGELEGEVSIIQDIDRAEQVSKDFEFIKI [chain 1 Y347A], the ratio to parent was roughly 0.1.
Work on chain 1 MDQENFHGSSLPQQLQNLHIQPQQASPNPVQTGFAPRRHYNNLVGLGNGNAVSGSPVKGAPLGQRHVKLKKEKISAQVAQLSQPGQLQLSDVGDPALAGGSGLQGGVGLMGVILPSDEALKFVSETDANGLAMKTPVSILQELLSRRGITPGYELVQIEGAIHEPTFRFRVSFKDKDTPFTAMGAGRSKKEAKHAAARALIDKLIGAQLPESPSSSAGPSVTGLTVAGSGGDGNANATGGGDASDKTVGNPIGWLQEMCMQRRWPPPSYETETEVGLPHERLFTIACSILNYREMGKGKSKKIAKRLAAHRMWMRLQETPIDSGKISDSICGELEGEVSIIQDIDRYEQVSKDFEFIKD [chain 1 I359D] yielded a ratio to parent of roughly 0.04.

Reference: PMC9279154 (Nature, 2022)
